Experimental data published in paper PMC5887453 (Nucleic Acids Research, 2018).

What was measured:
Test in all cases: native gel or EMSA
PhoEF-2 M167S = biological target: T1, PhoEF-2 M167S (Pyrococcus horikoshii, UniProt O59521 1-732, M167S)
T1 sequence (looked up): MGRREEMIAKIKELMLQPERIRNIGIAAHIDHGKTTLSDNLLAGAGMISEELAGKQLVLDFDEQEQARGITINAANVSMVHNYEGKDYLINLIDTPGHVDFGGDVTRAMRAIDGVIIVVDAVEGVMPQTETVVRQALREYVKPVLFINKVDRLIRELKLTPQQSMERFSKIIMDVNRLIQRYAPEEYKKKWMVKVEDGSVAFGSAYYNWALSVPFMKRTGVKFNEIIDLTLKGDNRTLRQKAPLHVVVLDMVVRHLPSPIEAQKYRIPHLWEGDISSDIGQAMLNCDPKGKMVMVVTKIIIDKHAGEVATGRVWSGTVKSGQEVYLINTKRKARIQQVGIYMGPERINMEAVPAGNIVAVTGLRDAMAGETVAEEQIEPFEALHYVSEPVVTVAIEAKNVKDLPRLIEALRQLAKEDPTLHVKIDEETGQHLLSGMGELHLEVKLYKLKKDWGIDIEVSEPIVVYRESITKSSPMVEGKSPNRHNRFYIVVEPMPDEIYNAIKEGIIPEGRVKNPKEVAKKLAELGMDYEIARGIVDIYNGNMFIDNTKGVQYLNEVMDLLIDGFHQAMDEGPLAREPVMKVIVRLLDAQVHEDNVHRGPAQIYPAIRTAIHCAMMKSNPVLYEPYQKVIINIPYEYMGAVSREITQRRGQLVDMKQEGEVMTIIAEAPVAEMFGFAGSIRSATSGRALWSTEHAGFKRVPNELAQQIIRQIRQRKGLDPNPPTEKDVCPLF

PhoEF-2 P164S = biological target: T2, PhoEF-2 P164S (Pyrococcus horikoshii, UniProt O59521 1-732, P164S)
T2 sequence (looked up): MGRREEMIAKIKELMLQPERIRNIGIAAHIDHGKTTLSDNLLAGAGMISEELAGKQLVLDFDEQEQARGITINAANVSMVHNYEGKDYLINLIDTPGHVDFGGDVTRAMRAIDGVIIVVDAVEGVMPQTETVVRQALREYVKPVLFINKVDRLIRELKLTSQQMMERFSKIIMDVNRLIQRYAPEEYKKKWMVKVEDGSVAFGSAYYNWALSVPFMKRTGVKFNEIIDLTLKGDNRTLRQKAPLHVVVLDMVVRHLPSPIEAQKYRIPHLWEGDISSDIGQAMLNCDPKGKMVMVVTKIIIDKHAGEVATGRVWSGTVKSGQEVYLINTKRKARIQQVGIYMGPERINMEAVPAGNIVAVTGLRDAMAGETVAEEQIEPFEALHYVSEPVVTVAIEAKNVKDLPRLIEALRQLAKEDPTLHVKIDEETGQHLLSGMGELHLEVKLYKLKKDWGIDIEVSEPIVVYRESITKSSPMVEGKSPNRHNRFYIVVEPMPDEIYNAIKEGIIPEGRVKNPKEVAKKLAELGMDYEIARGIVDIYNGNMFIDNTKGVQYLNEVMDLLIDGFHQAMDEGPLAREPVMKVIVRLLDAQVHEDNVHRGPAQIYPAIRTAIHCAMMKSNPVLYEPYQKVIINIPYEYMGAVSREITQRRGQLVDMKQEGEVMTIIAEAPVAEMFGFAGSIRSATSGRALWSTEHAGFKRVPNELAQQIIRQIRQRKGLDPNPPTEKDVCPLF

PhoEF-2 M168S = biological target: T3, PhoEF-2 M168S (Pyrococcus horikoshii, UniProt O59521 1-732, M168S)
T3 sequence (looked up): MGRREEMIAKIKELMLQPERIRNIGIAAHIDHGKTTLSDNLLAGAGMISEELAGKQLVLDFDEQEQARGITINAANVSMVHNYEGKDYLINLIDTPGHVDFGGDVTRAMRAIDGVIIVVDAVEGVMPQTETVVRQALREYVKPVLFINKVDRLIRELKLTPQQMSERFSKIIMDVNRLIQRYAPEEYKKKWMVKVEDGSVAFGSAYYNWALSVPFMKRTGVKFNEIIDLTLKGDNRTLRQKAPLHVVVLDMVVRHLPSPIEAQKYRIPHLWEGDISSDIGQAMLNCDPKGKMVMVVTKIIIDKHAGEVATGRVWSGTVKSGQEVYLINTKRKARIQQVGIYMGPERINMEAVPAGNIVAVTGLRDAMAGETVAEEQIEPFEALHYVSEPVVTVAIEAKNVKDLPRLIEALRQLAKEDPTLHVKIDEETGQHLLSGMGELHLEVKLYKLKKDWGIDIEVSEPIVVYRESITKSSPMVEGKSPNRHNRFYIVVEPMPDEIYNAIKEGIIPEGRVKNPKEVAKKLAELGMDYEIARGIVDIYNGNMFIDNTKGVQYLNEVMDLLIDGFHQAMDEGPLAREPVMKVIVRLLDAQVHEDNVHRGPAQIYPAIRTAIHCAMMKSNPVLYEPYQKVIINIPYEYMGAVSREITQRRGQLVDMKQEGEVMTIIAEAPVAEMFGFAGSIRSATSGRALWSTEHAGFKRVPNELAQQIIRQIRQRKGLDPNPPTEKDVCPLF

- binding result (PhoEF-2 M167S): binds
- binding result (PhoEF-2 P164S): binds
- binding result (PhoEF-2 M168S): binds
B1: Pyrococcus horikoshii ribosomal stalk protein P1 (natural protein, UniProt O57705 1-108, looked up)
chain: MEYVYAALLLHSVGKEINEENLKAVLQAAGVEPEEARIKALVAALEGVNIDEVIEKAAMPVAVAAAPAAAPAEAGGEEKKEEEKKEEEEKEEEVSEEEALAGLSALFG
modifications: in the SPR only: biotin on amino groups via a PEG linker (EZ-Link NHS-PEG4-Biotin)
